Experimental data as given in paper PMC9482650, “Quantitative fragmentomics allow affinity mapping of interactomes” (Nature Communications, 2022).

T1: APBA3_2, O96018
T1 sequence (O96018 480-570, limits assumed, looked up): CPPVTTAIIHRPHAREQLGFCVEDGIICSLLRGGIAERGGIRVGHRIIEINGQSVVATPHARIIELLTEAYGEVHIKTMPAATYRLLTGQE

T2: MPDZ_3, O75970
T2 sequence (O75970 372-473, limits assumed, looked up): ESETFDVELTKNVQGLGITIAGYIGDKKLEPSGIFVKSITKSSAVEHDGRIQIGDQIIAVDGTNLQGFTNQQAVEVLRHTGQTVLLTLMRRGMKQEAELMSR

T3: MPP5, Q8N3R9
T3 sequence (Q8N3R9 251-346, limits assumed, looked up): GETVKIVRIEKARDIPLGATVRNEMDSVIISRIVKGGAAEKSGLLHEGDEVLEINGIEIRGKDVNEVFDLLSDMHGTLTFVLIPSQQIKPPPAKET

T4: PARD6B, Q9BYG5
T4 sequence (Q9BYG5 152-260, limits assumed, looked up): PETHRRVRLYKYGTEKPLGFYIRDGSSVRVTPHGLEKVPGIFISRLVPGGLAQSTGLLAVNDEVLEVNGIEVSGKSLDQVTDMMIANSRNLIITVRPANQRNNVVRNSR

T5: PARD6G, Q9BYG4
T5 sequence (Q9BYG4 153-261, limits assumed, looked up): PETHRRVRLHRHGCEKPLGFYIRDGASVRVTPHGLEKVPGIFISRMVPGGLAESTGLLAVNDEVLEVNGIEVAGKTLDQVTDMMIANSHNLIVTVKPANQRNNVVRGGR

T6: PDZD2_3, O15018
T6 sequence (O15018 581-682, limits assumed, looked up): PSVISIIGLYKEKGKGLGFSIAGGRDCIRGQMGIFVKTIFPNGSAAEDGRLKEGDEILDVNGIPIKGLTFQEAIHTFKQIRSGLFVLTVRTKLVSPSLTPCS

T7: PDZD7_2, Q9H5P4
T7 sequence (Q9H5P4 205-303, limits assumed, looked up): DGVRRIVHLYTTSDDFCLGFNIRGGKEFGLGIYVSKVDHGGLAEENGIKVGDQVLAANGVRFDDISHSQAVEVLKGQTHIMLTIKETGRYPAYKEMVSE

T8: PDZD8, Q8NEN9
T8 sequence (Q8NEN9 361-459, limits assumed, looked up): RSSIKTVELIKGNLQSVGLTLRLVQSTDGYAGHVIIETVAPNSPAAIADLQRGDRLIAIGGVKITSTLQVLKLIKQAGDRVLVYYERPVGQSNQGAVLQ

T9: PTPN13_5, Q12923
T9 sequence (Q12923 1877-1975, limits assumed, looked up): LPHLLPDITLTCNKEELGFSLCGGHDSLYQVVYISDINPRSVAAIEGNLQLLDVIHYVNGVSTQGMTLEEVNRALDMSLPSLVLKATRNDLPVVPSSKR

T10: SHANK2, Q9UPX8
T10 sequence (Q9UPX8 621-730, limits assumed, looked up): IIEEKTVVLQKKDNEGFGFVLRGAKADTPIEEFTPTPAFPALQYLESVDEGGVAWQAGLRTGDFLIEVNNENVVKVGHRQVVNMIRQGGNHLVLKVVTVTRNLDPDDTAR

T11: SHANK3, Q9BYB0
T11 sequence (Q9BYB0 641-750, limits assumed, looked up): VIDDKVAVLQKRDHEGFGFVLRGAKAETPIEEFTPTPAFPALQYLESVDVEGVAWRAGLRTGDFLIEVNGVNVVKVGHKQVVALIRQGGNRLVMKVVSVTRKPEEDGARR

T12: SNTA1, Q13424
T12 sequence (Q13424 82-180, limits assumed, looked up): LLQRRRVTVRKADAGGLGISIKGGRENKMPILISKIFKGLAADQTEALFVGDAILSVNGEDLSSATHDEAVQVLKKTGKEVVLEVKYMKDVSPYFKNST


Tests used:
Assay in all cases: holdup assay
Design in all cases: key: below the threshold = too weak to quantify, mostly under pKd 3.1 to 4
Details in all cases: plain residues with an end cap or a label only (N-terminal biotin on a linker: ttds)
[1] = biological target: AHNAK2, Q8IVF2
Chain of AHNAK2, Q8IVF2 (Q8IVF2 108-193): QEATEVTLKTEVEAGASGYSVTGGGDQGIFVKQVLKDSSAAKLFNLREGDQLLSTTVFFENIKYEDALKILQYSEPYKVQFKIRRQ

[2] = biological target: T1, APBA3_2, O96018
[3] = biological target: DLG2_1, Q15700
[4] = biological target: GRIP2_2, Q9C0E4
Chain of GRIP2_2, Q9C0E4 (Q9C0E4 137-245): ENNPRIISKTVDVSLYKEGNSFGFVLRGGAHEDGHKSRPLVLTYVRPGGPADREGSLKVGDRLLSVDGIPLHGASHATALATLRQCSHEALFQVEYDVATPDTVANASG

[5] = biological target: MAGI1_3, Q96QZ7
Chain of MAGI1_3, Q96QZ7 (Q96QZ7 638-725): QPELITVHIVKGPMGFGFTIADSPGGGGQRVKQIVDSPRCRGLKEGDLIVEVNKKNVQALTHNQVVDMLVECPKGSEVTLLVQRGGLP

[6] = biological target: MAGI1_4, Q96QZ7
Chain of MAGI1_4, Q96QZ7 (Q96QZ7 other isoform, or with tags, fused parts or gaps): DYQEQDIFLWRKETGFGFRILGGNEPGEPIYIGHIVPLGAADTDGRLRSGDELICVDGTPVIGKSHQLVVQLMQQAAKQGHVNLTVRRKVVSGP

[7] = biological target: MAGI3_3, Q5TCQ9
Chain of MAGI3_3, Q5TCQ9 (Q5TCQ9 572-655): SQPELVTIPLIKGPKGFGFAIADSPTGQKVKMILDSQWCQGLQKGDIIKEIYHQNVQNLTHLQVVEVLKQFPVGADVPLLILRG

[8] = biological target: MAST3, O60307
Chain of MAST3, O60307 (O60307 945-1048): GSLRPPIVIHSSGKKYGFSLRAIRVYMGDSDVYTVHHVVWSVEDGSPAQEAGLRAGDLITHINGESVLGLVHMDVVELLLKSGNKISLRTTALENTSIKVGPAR

[9] = biological target: T2, MPDZ_3, O75970
[10] = biological target: T3, MPP5, Q8N3R9
[11] = biological target: NHERF2_1, Q15599
Chain of NHERF2_1, Q15599 (Q15599 9-91): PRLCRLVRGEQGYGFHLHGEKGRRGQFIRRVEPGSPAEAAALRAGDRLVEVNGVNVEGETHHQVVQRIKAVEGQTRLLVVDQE

[12] = biological target: T4, PARD6B, Q9BYG5
[13] = biological target: T5, PARD6G, Q9BYG4
[14] = biological target: T6, PDZD2_3, O15018
[15] = biological target: T7, PDZD7_2, Q9H5P4
[16] = biological target: T8, PDZD8, Q8NEN9
[17] = biological target: PDZD9, Q8IXQ8
Chain of PDZD9, Q8IXQ8 (Q8IXQ8 23-120): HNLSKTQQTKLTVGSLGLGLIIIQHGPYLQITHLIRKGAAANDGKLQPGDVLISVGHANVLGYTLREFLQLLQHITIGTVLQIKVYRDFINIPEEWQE

[18] = biological target: PDZRN4_2, Q6ZMN7
Chain of PDZRN4_2, Q6ZMN7 (Q6ZMN7 389-498): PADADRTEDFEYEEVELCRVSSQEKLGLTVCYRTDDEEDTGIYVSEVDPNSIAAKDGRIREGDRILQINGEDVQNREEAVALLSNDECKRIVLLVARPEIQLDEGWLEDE

[19] = biological target: PREX1_1, Q8TCU6
Chain of PREX1_1, Q8TCU6 (Q8TCU6 608-718): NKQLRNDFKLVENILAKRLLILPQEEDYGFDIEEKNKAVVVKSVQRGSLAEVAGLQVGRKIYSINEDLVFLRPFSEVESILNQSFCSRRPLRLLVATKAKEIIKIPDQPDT

[20] = biological target: T9, PTPN13_5, Q12923
[21] = biological target: RIMS2, Q9UQ26
Chain of RIMS2, Q9UQ26 (Q9UQ26 637-758): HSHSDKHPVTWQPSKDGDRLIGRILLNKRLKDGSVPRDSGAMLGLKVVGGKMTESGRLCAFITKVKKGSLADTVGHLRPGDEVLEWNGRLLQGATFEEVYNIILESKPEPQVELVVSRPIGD

[22] = biological target: SDCBP_1, O00560
Chain of SDCBP_1, O00560 (O00560 111-198): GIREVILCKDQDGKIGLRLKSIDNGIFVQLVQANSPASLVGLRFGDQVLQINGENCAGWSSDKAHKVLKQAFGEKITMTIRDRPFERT

[23] = biological target: T10, SHANK2, Q9UPX8
[24] = biological target: T11, SHANK3, Q9BYB0
[25] = biological target: T12, SNTA1, Q13424

Row | Binder | pKd [1] | pKd [2] | pKd [3] | pKd [4] | pKd [5] | pKd [6] | pKd [7] | pKd [8] | pKd [9] | pKd [10] | pKd [11] | pKd [12] | pKd [13] | pKd [14] | pKd [15] | pKd [16] | pKd [17] | pKd [18] | pKd [19] | pKd [20] | further results
1 | SEKHFRETEV [HTLV1-TAX1, P03409] | below the threshold | below the threshold | 5.16 | below the threshold | 4.75 | 4.28 | 4.36 | below the threshold | 3.92 | below the threshold | 3.95 | below the threshold | 3.93 | below the threshold | 4.05 | below the threshold | below the threshold | below the threshold | below the threshold | below the threshold | pKd [21]: below the threshold; pKd [22]: below the threshold; pKd [23]: below the threshold; pKd [24]: below the threshold; pKd [25]: 5.9
2 | NYWPGKETQL [SLCO1C1, Q9NYB5] | 4.41 | below the threshold | below the threshold | below the threshold | below the threshold | below the threshold | below the threshold | below the threshold | below the threshold | below the threshold | below the threshold | below the threshold | below the threshold | below the threshold | below the threshold | below the threshold | below the threshold | below the threshold | below the threshold | below the threshold | pKd [21]: below the threshold; pKd [22]: below the threshold; pKd [23]: 4.64; pKd [24]: below the threshold; pKd [25]: 5.51
3 | HIVEALETDV [PBK, Q96KB5] | below the threshold | below the threshold | 4.74 | below the threshold | 4.43 | 4.34 | 4.33 | below the threshold | below the threshold | below the threshold | below the threshold | below the threshold | below the threshold | below the threshold | below the threshold | below the threshold | below the threshold | below the threshold | below the threshold | below the threshold | pKd [21]: below the threshold; pKd [22]: below the threshold; pKd [23]: below the threshold; pKd [24]: below the threshold; pKd [25]: 5.28
4 | MERLRVETDV [ARHGEF16, Q5VV41] | below the threshold | below the threshold | 4.1 | below the threshold | below the threshold | below the threshold | below the threshold | below the threshold | below the threshold | below the threshold | below the threshold | below the threshold | below the threshold | below the threshold | 4.24 | below the threshold | below the threshold | below the threshold | below the threshold | below the threshold | pKd [21]: below the threshold; pKd [22]: below the threshold; pKd [23]: below the threshold; pKd [24]: below the threshold; pKd [25]: 4.62
